Results: patent US20030119027

Molecular target: T1, SfiI (Streptomyces fimbriatus) (UniProt O52512)
T1 sequence: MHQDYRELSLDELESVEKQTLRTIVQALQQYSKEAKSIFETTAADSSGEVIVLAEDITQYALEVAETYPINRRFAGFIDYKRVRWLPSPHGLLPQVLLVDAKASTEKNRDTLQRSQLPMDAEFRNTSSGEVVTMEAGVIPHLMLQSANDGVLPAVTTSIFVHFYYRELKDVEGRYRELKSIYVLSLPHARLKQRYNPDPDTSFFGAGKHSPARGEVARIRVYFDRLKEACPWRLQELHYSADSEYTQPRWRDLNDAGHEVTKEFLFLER
Assay: cleavage_in_vitro
Settings: yield of in vitro translation with T7 RNA polymerase; NEBuffer 2, 10 mM MgCl2, 50 C 60 min

“GGCCNNNNNGGCC (double strand) [SfiI site (Adenovirus-2 DNA)]” was tested, and the activity was over 33000 units/ml.
